The star is where a group is joined. Palmitoyl = CCCCCCCCCCCCCCCC(=O)*
Tests used:
Test in all cases: cell-based or functional assay
[1] = target: T1, human cholecystokinin B receptor (CCKB) (human, UniProt P32239 1-447)
T1 sequence (looked up): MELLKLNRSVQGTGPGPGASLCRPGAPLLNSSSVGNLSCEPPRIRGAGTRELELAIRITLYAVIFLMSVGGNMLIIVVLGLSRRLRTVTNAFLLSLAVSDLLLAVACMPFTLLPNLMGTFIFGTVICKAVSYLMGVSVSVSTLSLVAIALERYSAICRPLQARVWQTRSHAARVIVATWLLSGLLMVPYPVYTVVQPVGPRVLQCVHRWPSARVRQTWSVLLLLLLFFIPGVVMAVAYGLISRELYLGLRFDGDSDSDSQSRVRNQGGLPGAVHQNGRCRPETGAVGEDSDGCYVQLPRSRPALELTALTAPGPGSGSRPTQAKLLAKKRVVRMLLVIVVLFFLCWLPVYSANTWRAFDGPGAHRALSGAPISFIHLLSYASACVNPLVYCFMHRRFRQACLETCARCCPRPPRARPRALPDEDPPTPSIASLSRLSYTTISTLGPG

[2] = target: T2, human PAR1 (human, UniProt P25116 42-425)
T2 sequence (looked up): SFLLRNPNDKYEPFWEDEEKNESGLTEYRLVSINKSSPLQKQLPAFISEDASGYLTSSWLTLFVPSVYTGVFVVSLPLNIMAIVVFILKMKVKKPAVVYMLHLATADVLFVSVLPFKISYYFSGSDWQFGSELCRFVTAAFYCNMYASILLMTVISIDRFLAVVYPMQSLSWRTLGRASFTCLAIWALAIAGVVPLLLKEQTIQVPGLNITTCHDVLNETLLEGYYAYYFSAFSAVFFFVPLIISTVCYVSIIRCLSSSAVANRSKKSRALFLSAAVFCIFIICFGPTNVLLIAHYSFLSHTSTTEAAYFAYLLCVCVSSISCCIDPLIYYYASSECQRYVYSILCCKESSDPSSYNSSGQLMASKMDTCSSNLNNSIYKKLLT

[3] = target: rat somatostatin receptor (SSTR2) (rat, UniProt P30680 1-369)
Sequence of rat somatostatin receptor (SSTR2) (P30680 whole entry): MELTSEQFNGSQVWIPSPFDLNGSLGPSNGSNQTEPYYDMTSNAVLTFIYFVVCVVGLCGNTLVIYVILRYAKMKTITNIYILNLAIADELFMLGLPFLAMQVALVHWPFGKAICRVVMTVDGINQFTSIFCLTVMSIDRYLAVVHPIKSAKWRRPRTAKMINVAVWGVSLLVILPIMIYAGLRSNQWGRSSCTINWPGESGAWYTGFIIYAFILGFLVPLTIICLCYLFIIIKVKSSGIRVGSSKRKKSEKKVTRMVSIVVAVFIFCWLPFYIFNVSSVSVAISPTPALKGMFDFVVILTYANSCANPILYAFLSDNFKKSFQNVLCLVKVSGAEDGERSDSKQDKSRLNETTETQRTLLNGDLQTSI

B1: Bpal-18 (Pal-SGSRPTQAKLLAKKRVVR) (peptide)
peptide: Palmitoyl-SGSRPTQAKLLAKKRVVR-NH2
SMILES: CCCCCCCCCCCCCCCC(=O)N[C@@H](CO)C(=O)NCC(=O)N[C@@H](CO)C(=O)N[C@@H](CCCNC(=N)N)C(=O)N1CCC[C@H]1C(=O)N[C@H](C(=O)N[C@@H](CCC(N)=O)C(=O)N[C@@H](C)C(=O)N[C@@H](CCCCN)C(=O)N[C@@H](CC(C)C)C(=O)N[C@@H](CC(C)C)C(=O)N[C@@H](C)C(=O)N[C@@H](CCCCN)C(=O)N[C@@H](CCCCN)C(=O)N[C@@H](CCCNC(=N)N)C(=O)N[C@H](C(=O)N[C@H](C(=O)N[C@@H](CCCNC(=N)N)C(N)=O)C(C)C)C(C)C)[C@@H](C)O
[1]
  Agonist EC50 (activating phase, InsP formation): 1.5 µM
  Agonist Efficacy (% of full response to 300 nM CCK-8): 12%
  Agonist IC50 (inhibitory phase, InsP formation): 10 µM

## Palmitoyl-KKSRALF-NH2 [P1pal-7 (Pal-KKSRALF)]
[2]
  Antagonist IC50 (InsP formation, against 0.1 nM thrombin): 1.2 µM

B2: P1pal-19E (Pal-RCESSSAEANRSKKERELF) (peptide)
peptide: Palmitoyl-RCESSSAEANRSKKERELF-NH2
SMILES: CCCCCCCCCCCCCCCC(=O)N[C@@H](CCCNC(=N)N)C(=O)N[C@@H](CS)C(=O)N[C@@H](CCC(=O)O)C(=O)N[C@@H](CO)C(=O)N[C@@H](CO)C(=O)N[C@@H](CO)C(=O)N[C@@H](C)C(=O)N[C@@H](CCC(=O)O)C(=O)N[C@@H](C)C(=O)N[C@@H](CC(N)=O)C(=O)N[C@@H](CCCNC(=N)N)C(=O)N[C@@H](CO)C(=O)N[C@@H](CCCCN)C(=O)N[C@@H](CCCCN)C(=O)N[C@@H](CCC(=O)O)C(=O)N[C@@H](CCCNC(=N)N)C(=O)N[C@@H](CCC(=O)O)C(=O)N[C@@H](CC(C)C)C(=O)N[C@@H](Cc1ccccc1)C(N)=O
[2]
  Agonist EC50 (activating phase, InsP formation): 2.5 µM
  Agonist Efficacy (% of full response to extracellular agonist): 11%
  Agonist IC50 (inhibitory phase, InsP formation): 80 µM
  Antagonist IC50 (InsP formation, against 0.1 nM thrombin): > 50 µM

B3: P1pal-12 (Pal-RCLSSSAVANRS) (peptide)
peptide: Palmitoyl-RCLSSSAVANRS-NH2
SMILES: CCCCCCCCCCCCCCCC(=O)N[C@@H](CCCNC(=N)N)C(=O)N[C@@H](CS)C(=O)N[C@@H](CC(C)C)C(=O)N[C@@H](CO)C(=O)N[C@@H](CO)C(=O)N[C@@H](CO)C(=O)N[C@@H](C)C(=O)N[C@H](C(=O)N[C@@H](C)C(=O)N[C@@H](CC(N)=O)C(=O)N[C@@H](CCCNC(=N)N)C(=O)N[C@@H](CO)C(N)=O)C(C)C
[2]
  Antagonist IC50 (InsP formation, against 0.1 nM thrombin): 5 µM

B4: S2pal-23 (Pal-KVKSSGIRVGSSKRKKSEKKVTK) (peptide)
peptide: Palmitoyl-KVKSSGIRVGSSKRKKSEKKVTK-NH2
SMILES: CCCCCCCCCCCCCCCC(=O)N[C@@H](CCCCN)C(=O)N[C@H](C(=O)N[C@@H](CCCCN)C(=O)N[C@@H](CO)C(=O)N[C@@H](CO)C(=O)NCC(=O)N[C@H](C(=O)N[C@@H](CCCNC(=N)N)C(=O)N[C@H](C(=O)NCC(=O)N[C@@H](CO)C(=O)N[C@@H](CO)C(=O)N[C@@H](CCCCN)C(=O)N[C@@H](CCCNC(=N)N)C(=O)N[C@@H](CCCCN)C(=O)N[C@@H](CCCCN)C(=O)N[C@@H](CO)C(=O)N[C@@H](CCC(=O)O)C(=O)N[C@@H](CCCCN)C(=O)N[C@@H](CCCCN)C(=O)N[C@H](C(=O)N[C@H](C(=O)N[C@@H](CCCCN)C(N)=O)[C@@H](C)O)C(C)C)C(C)C)[C@@H](C)CC)C(C)C
[3]
  Antagonist IC50 (InsP formation, against 1 µM …): 2 µM

B5: P1pal-13 (Pal-AVANRSKKSRALF) (peptide)
peptide: Palmitoyl-AVANRSKKSRALF-NH2
SMILES: CCCCCCCCCCCCCCCC(=O)N[C@@H](C)C(=O)N[C@H](C(=O)N[C@@H](C)C(=O)N[C@@H](CC(N)=O)C(=O)N[C@@H](CCCNC(=N)N)C(=O)N[C@@H](CO)C(=O)N[C@@H](CCCCN)C(=O)N[C@@H](CCCCN)C(=O)N[C@@H](CO)C(=O)N[C@@H](CCCNC(=N)N)C(=O)N[C@@H](C)C(=O)N[C@@H](CC(C)C)C(=O)N[C@@H](Cc1ccccc1)C(N)=O)C(C)C
[2]
  Agonist EC50 (activating phase, InsP formation): 0.7 µM
  Agonist IC50 (inhibitory phase, InsP formation): 32 µM

Source: US7696168 (TUFTS MEDICAL CENTER, dated 2010)
